How the values were obtained:
placental stem cells [1] = experiment: Culture in the presence or absence of EGF (growth curve); format: cell-based, human; details: EGF 10 ng/ml versus absence of EGF
Experimental: A human placenta was obtained from an uncomplicated elective caesarean section. The whole placenta was placed in a sterilized 1000 ml cup and washed with Hank's Balanced Salt Solution (HBSS) containing penicillin G (100 U/ml), streptomycin (100 μg/ml), and amphotericin B (0.25 μg/ml). The umbilical cord was cut and the whole placenta was cut in half at the point of attachment of the umbilical cord. The amnion layer was peeled from the underlying chorion layer of the placenta by gentle stripping with a sterile scalpel, starting from the cut edge (middle of the placental body) and working outward. The amnion was washed with HBSS (without antibiotics) and rinsed with 0.05% Trypsin-EDTA. 0.05% Trypsin-EDTA was added to approximately twice the volume of the tissue in a 50 cc Falcon tube and incubated at 37° C. for 20 min on shaker in a 5% CO2 incubator. The tissue is transferred to a new tube with 0.05% Trypsin-EDTA. Media was added to remaining supernatant in the tube to stop trypsinization and centrifuged at 800 rpm for 10 min at 4° C. The pellet was resuspended in DMEM, 10% FBS, 1 mM Sodium Pyruvate, EGF (10 ng/ml), penicillin G (100 U/ml), streptomycin (100 μg/ml), and amphotericin B (0.25 μg/ml). The trysinization step was repeated up to a total of 3 times. The cells released by each trypsinization were plated separately or mixed in one tube after passing through a 100 μm cell strainer. […]

placental stem cells [2] = test system: placental stem cells
Experimental: The cells were cultured for either 7-10 days or until the cultures grew to confluence. The cells were trypsinized and reseeded in 6 well plates. The cells were subjected to different culture conditions, having varying growth factors supplementing the DMEM or MEM based medium. […] Placental stem cells were cultured for an additional 14 days. At the end of 14 days, the cells were evaluated for the expression of human albumin, CYP3A4, A1AT, or C/EBP-alpha.

B1: EGF: epidermal growth factor, media supplement (protein, UniProt P01133 23-1207, looked up)
Pro-epidermal growth factor: PQHWSCPEGTLAGNGNSTCVGPAPFLIFSHGNSIFRIDTEGTNYEQLVVDAGVSVIMDFHYNEKRIYWVDLERQLLQRVFLNGSRQERVCNIEKNVSGMAINWINEEVIWSNQQEGIITVTDMKGNNSHILLSALKYPANVAVDPVERFIFWSSEVAGSLYRADLDGVGVKALLETSEKITAVSLDVLDKRLFWIQYNREGSNSLICSCDYDGGSVHISKHPTQHNLFAMSLFGDRIFYSTWKMKTIWIANKHTGKDMVRINLHSSFVPLGELKVVHPLAQPKAEDDTWEPEQKLCKLRKGNCSSTVCGQDLQSHLCMCAEGYALSRDRKYCEDVNECAFWNHGCTLGCKNTPGSYYCTCPVGFVLLPDGKRCHQLVSCPRNVSECSHDCVLTSEGPLCFCPEGSVLERDGKTCSGCSSPDNGGCSQLCVPLSPVSWECDCFPGYDLQLDEKSCAASGPQPFLLFANSQDIRHMHFDGTDYGTLLSQQMGMVYALDHDPVENKIYFAHTALKWIERANMDGSQRERLIEEGVDVPEGLAVDWIGRRFYWTDRGKSLIGRSDLNGKRSKIITKENISQPRGIAVHPMAKRLFWTDTGINPRIESSSLQGLGRLVIASSDLIWPSGITIDFLTDKLYWCDAKQSVIEMANLDGSKRRRLTQNDVGHPFAVAVFEDYVWFSDWAMPSVMRVNKRTGKDRVRLQGSMLKPSSLVVVHPLAKPGADPCLYQNGGCEHICKKRLGTAWCSCREGFMKASDGKTCLALDGHQLLAGGEVDLKNQVTPLDILSKTRVSEDNITESQHMLVAEIMVSDQDDCAPVGCSMYARCISEGEDATCQCLKGFAGDGKLCSDIDECEMGVPVCPPASSKCINTEGGYVCRCSEGYQGDGIHCLDIDECQLGEHSCGENASCTNTEGGYTCMCAGRLSEPGLICPDSTPPPHLREDDHHYSVRNSDSECPLSHDGYCLHDGVCMYIEALDKYACNCVVGYIGERCQYRDLKWWELRHAGHGQQQKVIVVAVCVVVLVMLLLLSLWGAHYYRTQKLLSKNPKNPYEESSRDVRSRRPADTEDGMSSCPQPWFVVIKEHQDLKNGGQPVAGEDGQAADGSMQPTSWRQEPQLCGMGTEQGCWIPVSSDKGSCPQVMERSFHMPSYGTQTLEGGVEKPHSLLSANPLWQQRALDPPHQMELTQ
modifications: Pro-epidermal growth factor
notes: epidermal growth factor, media supplement
- proliferation of placental stem cells (placental stem cells [1]): proliferate robustly
- proliferation of placental stem cells (placental stem cells [1]; listed as Epidermal Growth Factor (EGF)): grow significantly better
- liver specific gene expression (albumin, CYP3A4, A1AT, C/EBP-alpha) (placental stem cells [2]): enhance liver specific gene expression

B2: FGF 7: fibroblast growth factor 7, media supplement (protein, UniProt P21781 32-194, looked up)
Fibroblast growth factor 7: CNDMTPEQMATNVNCSSPERHTRSYDYMEGGDIRVRRLFCRTQWYLRIDKRGKVKGTQEMKNNYNIMEIRTVAVGIVAIKGVESEFYLAMNKEGKLYAKKECNEDCNFKELILENHYNTYASAKWTHNGGEMFVALNQKGIPVRGKKTKKEQKTAHFLPMAIT
- liver specific gene expression (albumin, CYP3A4, A1AT, C/EBP-alpha) (placental stem cells [2]): did not enhance liver specific gene expression

B3: FGF 4: fibroblast growth factor 4, media supplement (protein, UniProt P08620 31-206, looked up)
Fibroblast growth factor 4: APTAPNGTLEAELERRWESLVALSLARLPVAAQPKEAAVQSGAGDYLLGIKRLRRLYCNVGIGFHLQALPDGRIGGAHADTRDSLLELSPVERGVVSIFGVASRFFVAMSSKGKLYGSPFFTDECTFKEILLPNNYNAYESYKYPGMFIALSKNGKTKKGNRVSPTMKVTHFLPRL
- liver specific gene expression (albumin, CYP3A4, A1AT, C/EBP-alpha) (placental stem cells [2]): did not enhance liver specific gene expression

From US20040161419A1, “Placental stem cells and uses thereof” (priority 2002, published 2004)
